One assay has as its target T1, GST-HDMX (human (HDMX), UniProt O15151 1-134).
T1 chain: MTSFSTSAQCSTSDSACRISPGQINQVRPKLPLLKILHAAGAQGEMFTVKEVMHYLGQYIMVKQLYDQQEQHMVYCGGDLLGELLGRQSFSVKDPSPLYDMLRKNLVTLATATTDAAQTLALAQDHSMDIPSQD
Nature of the assay: Competition ELISA. (ELISA stands for enzyme-linked immunosorbent assay.)

The target in the next assay is SP-44. Nature of the assay: Affinity selection MS.
In the next assay the target is SP-5. Nature of the assay: Affinity selection MS.

Here are results for three molecules from patent US20170349638A1 (published 2017).

Where no end group is shown, it is not given here.

By IC50 is commonly meant the concentration that inhibits the measured activity by half. Read a high IC50 as weaker potency. Molecule QSQQTFANLWRLLAQN (not fully specified (residues 7, 14, N-terminus, C-terminus, bridges)) [peptide 46 (Table 9), Ac-QSQQTF%r8NLWRLL%QN-NH2] displayed a concentration for half-maximal inhibition (IC50) with GST-HDMX of 175 nM. This lies in the sub-micromolar range.

B1: GST-hDMX (other)
chain: T1 chain
A word on the Kd: it is a measure of binding affinity in units of concentration. Regarding B1, the Kd with SP-44 was 180 nM; with SP-5, 90 nM.

B2: GST-hDM2 (other)
chain: MCNTNMSVPTDGAVTTSQIPASEQETLVRPKPLLLKLLKSVGAQKDTYTMKEVLFYLGQYIMTKRLYDEKQQHIVYCSNDLLGDLFGVPSFSVKEHRKIYTMIYRNLVVVNQQESSDSGTSVSENRCHLEGGSDQKDL
Consider B2, for which the Kd with SP-44 and with SP-5 was 25 nM in each case.
